± gives the uncertainty stated by the source.
Experiment: self-splicing fitness, log relative to wild type (ln ratio); higher = more splicing; Tetrahymena group I intron in knt gene, E. coli kanamycin selection, DiMSum; sequences stand for … in CUCUCU…GGAGGGAAAAGUUAUCAGGCAUGCACCUGGUAGCUAGUCUUUAAACCAAUAGAUUGCAUCGGUUUAAAAGGCAAGACCGUCAAAUUGCGGGAAAGGGGUCAACAGCCGUUCAGUACCAAGUCUCAGGGGAAACUUUGAGAUGGCCUUGCAAAGGGUAUGGUAAUAAGCUGACGGACAUGGUCCUAACCACGCAGCCAAGUCCUAAGUCAACAGAUCUUCUGUUGAUAUGGAUGCAGUUCACAGACUAAAUGUCGGUCGGGGAAGAUGUAUUCUUCUCAUAAGAUAUAGUCGGACCUCUCCUUAAUGGGAGCUAGCGGAUGAAGUGAUGCAACACUGGAGCCGCUGGGAACUAAUUUGUAUGCGAAAGUAUAUUGAUUAGUUUUGGAGUACUCGUGGUCG
Outline: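 Pooled colonies went to amplicon sequencing on an Illumina HiSeq 2500 after six replicate transformations. The plates were LB agar with 100 μg/mL carbenicillin, 50 μM IPTG and 0.2% rhamnose, with or without 25 μg/mL kanamycin, incubated overnight at 37°C or 30°C. The E. coli BL21(DE3) library had all eight P1ex-region intron nucleotides randomised, the intron placed in the knt kanamycin-resistance gene on pET-22b(+). DiMSum fitness is the error-weighted combination of replicate fold changes, kanamycin against none, normalised to wild type.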

Row | Sequence | self-splicing fitness (ln) (30 °C) | self-splicing fitness (ln) (37 °C)
1 | ACGAAGCAAUAUUACGCGUA | -1.27 ± 0.11 | -0.335 ± 0.084
2 | ACGAAGCAAUAUUACGCUAA | -1.22 ± 0.079 | -0.582 ± 0.083
3 | ACGAAGCAAUAUUACGCUGA | -0.881 ± 0.11 | -0.99 ± 0.1
4 | ACGAAGCAAUAUUACGCUGC | -3.95 ± 0.25 | -1.35 ± 0.18
5 | ACGAAGCAAUAUUACGCUGG | -1.07 ± 0.098 | -0.428 ± 0.11
6 | ACGAAGCAAUAUUACGGAAC | -3.19 ± 0.26 | -1.95 ± 0.25
7 | ACGAAGCAAUAUUACGGGCA | -1.46 ± 0.068 | -0.631 ± 0.075
8 | ACGAAGCAAUAUUACGGUCC | -1.92 ± 0.21 | -0.717 ± 0.21
9 | ACGAAGCAAUAUUACGUAAA | -2.9 ± 0.18 | -1.45 ± 0.19
10 | ACGAAGCAAUAUUACGUAGA | -3.72 ± 0.24 | -2.89 ± 0.27
11 | ACGAAGCAAUAUUACGUGAC | -3.87 ± 0.26 | -1.12 ± 0.17
12 | ACGAAGCAAUAUUACGUUGG | -3.56 ± 0.16 | -2.38 ± 0.17
13 | ACGCAGCAAUAUUACGAUCA | -1.66 ± 0.099 | -1.26 ± 0.093
14 | ACGCAGCAAUAUUACGAUCU | -0.427 ± 0.063 | 0.356 ± 0.091
15 | ACGCAGCAAUAUUACGAUUA | -1.54 ± 0.091 | -0.902 ± 0.079
16 | ACGCAGCAAUAUUACGCAGC | -3.49 ± 0.18 | -2.16 ± 0.25
17 | ACGCAGCAAUAUUACGCCAC | – | -3.22 ± 0.37
18 | ACGCAGCAAUAUUACGCCCA | -0.672 ± 0.096 | -0.153 ± 0.12
19 | ACGCAGCAAUAUUACGCGAU | -3.38 ± 0.16 | -2.22 ± 0.16
20 | ACGCAGCAAUAUUACGCGGG | -2.94 ± 0.12 | -0.419 ± 0.099
21 | ACGCAGCAAUAUUACGCUAU | -1.25 ± 0.077 | -0.724 ± 0.11
22 | ACGCAGCAAUAUUACGCUUC | -2.75 ± 0.26 | -2.48 ± 0.22
23 | ACGCAGCAAUAUUACGGAAC | -3.67 ± 0.2 | -1.78 ± 0.17
24 | ACGCAGCAAUAUUACGGAAU | -2.27 ± 0.1 | -2.07 ± 0.14

Row | Sequence | self-splicing fitness (ln) (30 °C) | self-splicing fitness (ln) (37 °C)
25 | ACGCAGCAAUAUUACGGCGC | -3.39 ± 0.14 | -1.63 ± 0.11
26 | ACGCAGCAAUAUUACGGCGG | -2.14 ± 0.074 | -1.91 ± 0.14
27 | ACGCAGCAAUAUUACGGGCG | -1.5 ± 0.063 | -1.3 ± 0.072
28 | ACGCAGCAAUAUUACGGGUA | -2.46 ± 0.11 | -1.37 ± 0.087
29 | ACGCAGCAAUAUUACGGUGC | -2.18 ± 0.15 | –
30 | ACGCAGCAAUAUUACGGUGG | -2.52 ± 0.11 | -1.17 ± 0.11
31 | ACGCAGCAAUAUUACGGUUG | -3.89 ± 0.2 | -1.85 ± 0.14
32 | ACGCAGCAAUAUUACGUAAC | -3.99 ± 0.22 | -2.37 ± 0.23
33 | ACGCAGCAAUAUUACGUAAG | -0.0743 ± 0.099 | -1.27 ± 0.13
34 | ACGCAGCAAUAUUACGUCGU | -3.77 ± 0.26 | -1.6 ± 0.21
35 | ACGCAGCAAUAUUACGUGGU | -4.06 ± 0.12 | -2.58 ± 0.091
36 | ACGCAGCAAUAUUACGUUGA | -1.43 ± 0.11 | -1.73 ± 0.11
37 | ACGCAGCAAUAUUACGUUUC | -3.87 ± 0.2 | -2.61 ± 0.25
38 | ACGGAGCAAUAUUACGACGG | -1.46 ± 0.1 | 0.14 ± 0.12
39 | ACGGAGCAAUAUUACGAUAG | -3.57 ± 0.29 | -3.09 ± 0.34
40 | ACGGAGCAAUAUUACGAUGG | -3.63 ± 0.32 | -0.86 ± 0.27
41 | ACGGAGCAAUAUUACGCCAA | -3.46 ± 0.33 | -3.34 ± 0.47
42 | ACGGAGCAAUAUUACGCGCU | -3.23 ± 0.3 | -1.17 ± 0.21
43 | ACGGAGCAAUAUUACGCGGU | -2.86 ± 0.25 | -1.03 ± 0.31
44 | ACGGAGCAAUAUUACGCGUC | – | -1.92 ± 0.33
45 | ACGGAGCAAUAUUACGCUAC | -3.07 ± 0.33 | -2.06 ± 0.39
46 | ACGGAGCAAUAUUACGGACG | -1.96 ± 0.19 | -1.17 ± 0.22
47 | ACGGAGCAAUAUUACGGCUG | -2.87 ± 0.12 | -1.26 ± 0.13
48 | ACGGAGCAAUAUUACGGGUA | -2.34 ± 0.25 | -3.02 ± 0.32

Source: the supplement of paper PMC7877785
